The target of series [1] is T1, Dda 1993 Y350E Y350E (Enterobacteria phage T4) (UniProt P32270).
T1 sequence: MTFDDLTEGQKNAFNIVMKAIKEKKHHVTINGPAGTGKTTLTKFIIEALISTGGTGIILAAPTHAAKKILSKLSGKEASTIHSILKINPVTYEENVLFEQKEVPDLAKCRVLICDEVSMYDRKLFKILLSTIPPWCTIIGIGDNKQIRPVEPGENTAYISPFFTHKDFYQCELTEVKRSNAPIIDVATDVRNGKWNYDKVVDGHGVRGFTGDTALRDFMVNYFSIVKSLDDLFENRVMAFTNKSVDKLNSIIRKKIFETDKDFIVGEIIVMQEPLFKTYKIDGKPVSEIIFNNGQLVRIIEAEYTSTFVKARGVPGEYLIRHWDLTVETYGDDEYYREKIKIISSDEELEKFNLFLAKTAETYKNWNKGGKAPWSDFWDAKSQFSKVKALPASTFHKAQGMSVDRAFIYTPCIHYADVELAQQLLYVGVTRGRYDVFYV
Particulars: nanopore translocation, PromethION; background mutations not given.

Series [2] deals with T2, Dda 1993 N221E N221E (Enterobacteria phage T4) (UniProt P32270).
T2 sequence: T1 sequence with N221E, E350Y
The settings on record: nanopore translocation, PromethION; background mutations not given.

Series [3] deals with T3, Dda 1993 T210K T210K (Enterobacteria phage T4) (UniProt P32270).
T3 sequence: T1 sequence with T210K, E350Y
Particulars: nanopore translocation, PromethION; background mutations not given.

The target of series [4] is T4, Dda 1993 T156F T156F (Enterobacteria phage T4) (UniProt P32270).
T4 sequence: T1 sequence with T156F, E350Y
The settings on record: nanopore translocation, PromethION; background mutations not given.

The target of series [5] is T5, Dda 1993 K358M K358M (Enterobacteria phage T4) (UniProt P32270).
T5 sequence: T1 sequence with E350Y, K358M
The settings on record: nanopore translocation, FLO-MIN106; background mutations not given.

Series [6] has as its target T6, Dda 1993 K358L K358L (Enterobacteria phage T4) (UniProt P32270).
T6 sequence: T1 sequence with E350Y, K358L
Particulars: nanopore translocation, FLO-MIN106; background mutations not given.

Substitutions are numbered along the chain they refer to.

“barcoded 3.6 kb DNA analyte ligated to sequencing Y adaptor”: the activity (bps speed delta vs control) was 6.06 in series [1]; 4.37 in series [2]; 0.52 in series [3]; 13.8 in series [4]; -48.6 in series [5]; -42.7 in series [6].

The values above are taken from patent US20250382602.
